In the supplement of paper PMC10065799, “High-throughput profiling of sequence recognition by tyrosine kinases and SH2 domains using bacterial peptide display” (eLife, 2023):

Tests used:
c-Src SH2 = assay: SH2 binding enrichment of the phosphorylated peptide, bacterial display (enrichment ratio); higher = better substrate or ligand; peptides without Tyr show the background
Grb2 SH2 = Grb2 SH2 (UniProt P62993); assay: as above
SHP2-C SH2 = assay: as above
FGFR1 = FGFR1 (UniProt P11362); assay: phosphorylation enrichment, bacterial display (enrichment ratio); higher = better substrate or ligand; peptides without Tyr show the background
FGFR1, sequence (P11362 whole entry, looked up): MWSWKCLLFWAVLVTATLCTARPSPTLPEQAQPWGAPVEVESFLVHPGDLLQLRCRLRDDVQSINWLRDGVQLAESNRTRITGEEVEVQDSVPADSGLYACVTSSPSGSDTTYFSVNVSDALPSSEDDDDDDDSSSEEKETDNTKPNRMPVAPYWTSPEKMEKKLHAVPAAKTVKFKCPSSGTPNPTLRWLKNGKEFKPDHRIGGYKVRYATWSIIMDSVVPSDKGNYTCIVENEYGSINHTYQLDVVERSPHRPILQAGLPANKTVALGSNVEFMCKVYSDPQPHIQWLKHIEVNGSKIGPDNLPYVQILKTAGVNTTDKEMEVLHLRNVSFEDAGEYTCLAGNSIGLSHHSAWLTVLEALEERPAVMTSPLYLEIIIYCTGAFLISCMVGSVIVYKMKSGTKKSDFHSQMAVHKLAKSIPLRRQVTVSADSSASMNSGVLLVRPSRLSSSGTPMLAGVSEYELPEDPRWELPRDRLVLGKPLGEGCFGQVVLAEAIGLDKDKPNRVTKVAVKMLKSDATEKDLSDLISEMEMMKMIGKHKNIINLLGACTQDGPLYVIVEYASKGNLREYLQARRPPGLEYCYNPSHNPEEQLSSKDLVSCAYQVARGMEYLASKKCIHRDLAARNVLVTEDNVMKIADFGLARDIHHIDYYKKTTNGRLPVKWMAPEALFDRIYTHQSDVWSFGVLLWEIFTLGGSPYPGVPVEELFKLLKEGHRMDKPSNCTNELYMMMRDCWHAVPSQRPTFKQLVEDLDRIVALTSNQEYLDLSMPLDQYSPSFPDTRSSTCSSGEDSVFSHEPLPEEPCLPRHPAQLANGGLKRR

Fyn = Fyn (UniProt P06241); assay: as above
Fyn, sequence (P06241 whole entry, looked up): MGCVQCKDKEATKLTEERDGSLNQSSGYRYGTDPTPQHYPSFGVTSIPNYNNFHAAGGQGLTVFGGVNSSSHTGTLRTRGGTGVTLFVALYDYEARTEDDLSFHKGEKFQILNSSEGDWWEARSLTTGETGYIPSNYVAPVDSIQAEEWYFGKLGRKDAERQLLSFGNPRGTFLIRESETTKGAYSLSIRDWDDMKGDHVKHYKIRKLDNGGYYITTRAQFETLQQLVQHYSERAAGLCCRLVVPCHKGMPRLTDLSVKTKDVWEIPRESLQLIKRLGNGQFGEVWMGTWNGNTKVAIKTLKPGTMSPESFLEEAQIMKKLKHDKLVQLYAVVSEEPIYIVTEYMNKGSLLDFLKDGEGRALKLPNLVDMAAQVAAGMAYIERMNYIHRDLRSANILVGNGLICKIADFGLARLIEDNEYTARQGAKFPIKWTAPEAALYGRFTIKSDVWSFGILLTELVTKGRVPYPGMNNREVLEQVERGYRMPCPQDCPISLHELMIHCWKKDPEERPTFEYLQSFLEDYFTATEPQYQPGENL

c-Abl (mouse) = assay: as above
Fer (mouse) = assay: as above
Hck = Hck (UniProt P08631); assay: as above
Hck, sequence (P08631 whole entry, looked up): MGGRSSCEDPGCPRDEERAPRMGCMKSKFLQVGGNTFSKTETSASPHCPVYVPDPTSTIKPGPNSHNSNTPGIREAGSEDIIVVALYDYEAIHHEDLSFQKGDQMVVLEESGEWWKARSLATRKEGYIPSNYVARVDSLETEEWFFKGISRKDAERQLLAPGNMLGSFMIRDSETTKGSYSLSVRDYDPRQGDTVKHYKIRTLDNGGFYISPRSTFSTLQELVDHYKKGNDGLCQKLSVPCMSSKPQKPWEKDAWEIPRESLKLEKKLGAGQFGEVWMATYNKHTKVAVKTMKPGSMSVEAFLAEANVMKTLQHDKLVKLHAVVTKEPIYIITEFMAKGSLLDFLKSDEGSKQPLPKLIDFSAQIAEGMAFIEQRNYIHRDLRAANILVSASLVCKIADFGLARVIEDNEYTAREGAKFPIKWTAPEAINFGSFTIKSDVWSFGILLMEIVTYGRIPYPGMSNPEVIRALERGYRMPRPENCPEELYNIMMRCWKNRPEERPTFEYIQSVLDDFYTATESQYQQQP

EPHB1 = EPHB1 (UniProt P54762); assay: as above
Fes = Fes (UniProt P07332); assay: as above
Fes, sequence (P07332 whole entry, looked up): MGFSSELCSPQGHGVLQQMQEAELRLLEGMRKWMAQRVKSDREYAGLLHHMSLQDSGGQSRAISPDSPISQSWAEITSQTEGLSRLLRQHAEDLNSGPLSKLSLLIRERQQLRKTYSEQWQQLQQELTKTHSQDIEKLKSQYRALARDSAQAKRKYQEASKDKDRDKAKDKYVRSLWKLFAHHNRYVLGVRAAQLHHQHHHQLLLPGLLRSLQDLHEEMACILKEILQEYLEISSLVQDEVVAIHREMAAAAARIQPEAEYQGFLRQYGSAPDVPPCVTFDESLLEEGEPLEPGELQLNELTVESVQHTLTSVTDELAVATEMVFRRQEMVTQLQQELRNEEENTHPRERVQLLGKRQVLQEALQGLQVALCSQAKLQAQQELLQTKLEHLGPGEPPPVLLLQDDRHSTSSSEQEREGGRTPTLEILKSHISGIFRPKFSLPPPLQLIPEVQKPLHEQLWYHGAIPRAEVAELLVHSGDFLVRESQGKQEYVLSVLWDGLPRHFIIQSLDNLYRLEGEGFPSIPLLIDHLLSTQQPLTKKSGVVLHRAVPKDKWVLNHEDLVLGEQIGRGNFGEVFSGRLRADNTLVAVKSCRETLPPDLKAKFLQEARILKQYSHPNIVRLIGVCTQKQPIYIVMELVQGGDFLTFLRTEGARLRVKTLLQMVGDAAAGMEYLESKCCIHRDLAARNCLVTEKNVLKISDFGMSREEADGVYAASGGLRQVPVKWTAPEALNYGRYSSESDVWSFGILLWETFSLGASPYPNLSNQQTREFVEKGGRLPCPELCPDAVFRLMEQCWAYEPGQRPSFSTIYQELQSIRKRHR

EPHB2 = EPHB2 (UniProt P29323); assay: as above
EPHB2, sequence (P29323 whole entry, looked up): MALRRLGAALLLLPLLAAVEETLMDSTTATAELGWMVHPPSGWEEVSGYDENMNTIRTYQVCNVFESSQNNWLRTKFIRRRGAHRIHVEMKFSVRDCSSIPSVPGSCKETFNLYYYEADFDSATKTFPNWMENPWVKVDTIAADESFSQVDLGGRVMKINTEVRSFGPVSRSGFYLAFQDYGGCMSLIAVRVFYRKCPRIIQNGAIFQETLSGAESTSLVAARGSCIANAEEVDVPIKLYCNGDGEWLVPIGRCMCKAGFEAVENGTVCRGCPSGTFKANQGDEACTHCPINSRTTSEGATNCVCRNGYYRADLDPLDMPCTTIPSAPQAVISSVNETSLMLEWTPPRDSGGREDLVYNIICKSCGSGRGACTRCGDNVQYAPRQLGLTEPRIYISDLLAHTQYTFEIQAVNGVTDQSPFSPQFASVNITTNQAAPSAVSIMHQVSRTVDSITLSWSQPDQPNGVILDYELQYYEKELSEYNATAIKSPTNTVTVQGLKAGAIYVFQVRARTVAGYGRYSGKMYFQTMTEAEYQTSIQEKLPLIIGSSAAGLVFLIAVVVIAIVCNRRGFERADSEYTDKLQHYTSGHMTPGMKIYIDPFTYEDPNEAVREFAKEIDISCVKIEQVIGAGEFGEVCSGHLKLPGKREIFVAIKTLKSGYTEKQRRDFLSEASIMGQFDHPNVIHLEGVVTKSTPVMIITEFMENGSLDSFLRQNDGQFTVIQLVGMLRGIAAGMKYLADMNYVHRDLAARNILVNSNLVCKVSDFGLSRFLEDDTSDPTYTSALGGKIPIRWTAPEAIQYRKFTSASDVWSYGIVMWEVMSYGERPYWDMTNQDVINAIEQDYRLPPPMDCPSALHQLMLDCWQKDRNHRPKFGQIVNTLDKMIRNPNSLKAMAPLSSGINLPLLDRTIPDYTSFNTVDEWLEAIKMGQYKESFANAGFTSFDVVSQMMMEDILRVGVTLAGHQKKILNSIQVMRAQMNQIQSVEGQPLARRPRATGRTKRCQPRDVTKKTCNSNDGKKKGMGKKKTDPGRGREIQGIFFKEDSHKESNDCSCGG

MERTK = MERTK (UniProt Q12866); assay: as above
AncSZ = assay: as above
Jak2 = Jak2 (UniProt O60674); assay: as above
Jak2, sequence (O60674 whole entry, looked up): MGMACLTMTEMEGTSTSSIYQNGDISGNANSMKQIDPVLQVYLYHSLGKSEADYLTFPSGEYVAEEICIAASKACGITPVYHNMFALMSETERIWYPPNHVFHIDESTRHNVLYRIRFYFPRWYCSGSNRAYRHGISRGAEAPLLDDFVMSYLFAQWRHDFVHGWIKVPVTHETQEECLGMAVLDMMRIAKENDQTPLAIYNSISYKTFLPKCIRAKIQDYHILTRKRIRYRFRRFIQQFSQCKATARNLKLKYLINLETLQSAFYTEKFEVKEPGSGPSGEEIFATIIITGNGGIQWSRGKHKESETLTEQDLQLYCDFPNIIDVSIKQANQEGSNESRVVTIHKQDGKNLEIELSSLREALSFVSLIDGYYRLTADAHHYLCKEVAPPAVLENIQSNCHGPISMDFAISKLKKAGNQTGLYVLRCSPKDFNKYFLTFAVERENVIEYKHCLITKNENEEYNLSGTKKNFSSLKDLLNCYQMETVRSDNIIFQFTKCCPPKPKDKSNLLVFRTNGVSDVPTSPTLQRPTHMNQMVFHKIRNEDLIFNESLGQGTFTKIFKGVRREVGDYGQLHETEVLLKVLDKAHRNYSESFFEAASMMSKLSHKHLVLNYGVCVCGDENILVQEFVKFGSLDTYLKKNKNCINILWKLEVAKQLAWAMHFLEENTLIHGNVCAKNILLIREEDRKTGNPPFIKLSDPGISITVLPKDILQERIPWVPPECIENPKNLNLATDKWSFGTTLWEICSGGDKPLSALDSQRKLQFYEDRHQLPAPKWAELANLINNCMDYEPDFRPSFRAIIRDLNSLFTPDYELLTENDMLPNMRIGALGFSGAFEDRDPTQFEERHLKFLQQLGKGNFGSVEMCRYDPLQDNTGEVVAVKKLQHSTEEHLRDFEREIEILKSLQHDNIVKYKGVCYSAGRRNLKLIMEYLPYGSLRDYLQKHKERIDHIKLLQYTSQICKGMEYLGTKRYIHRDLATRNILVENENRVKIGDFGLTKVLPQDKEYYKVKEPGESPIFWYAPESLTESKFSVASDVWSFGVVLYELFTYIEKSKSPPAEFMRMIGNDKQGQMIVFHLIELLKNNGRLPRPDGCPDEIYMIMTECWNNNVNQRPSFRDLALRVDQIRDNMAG

c-Src = assay: as above
FGFR3 = FGFR3 (UniProt P22607); assay: as above
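For SH2 binding enrichment of the phosphorylated peptide, bacterial display in this document: peptide library displayed on the E. coli surface as eCPX fusions, selected cells deep-sequenced, score is each peptide's frequency after selection divided by its frequency in the input.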
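For phosphorylation enrichment, bacterial display in this document: 11-residue human phosphosite peptides and single-mutation variants displayed on the E. coli surface, counted by deep sequencing, each peptide's frequency after selection divided by its frequency in the unselected input library; frequency after pTyr selection over input frequency; kinase dosed for 20-30% of maximal phosphorylation in three min.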

Row | SH2 binding enrichment (c-Src SH2) | SH2 binding enrichment (Grb2 SH2) | SH2 binding enrichment (SHP2-C SH2) | Sequence | phosphorylation enrichment (FGFR1) | phosphorylation enrichment (Fyn) | phosphorylation enrichment (c-Abl (mouse)) | phosphorylation enrichment (Fer (mouse)) | phosphorylation enrichment (Hck) | phosphorylation enrichment (EPHB1) | phosphorylation enrichment (Fes) | phosphorylation enrichment (EPHB2) | phosphorylation enrichment (MERTK) | phosphorylation enrichment (AncSZ) | phosphorylation enrichment (Jak2) | phosphorylation enrichment (c-Src) | phosphorylation enrichment (FGFR3)
1 | 4.12 | 1.05 | 1.45 | DGKYSYLKVGH [GRM3_Y480_G475D] | 0.38 | 0.372 | 0.284 | 0.372 | 0.455 | 0.303 | 0.623 | 0.297 | 0.44 | 0.442 | 0.437 | 0.352 | 0.427
2 | 0.557 | 0.781 | 0.662 | DGMADYSDPSF [CDC5L_Y459_YF] | 0.911 | 0.488 | 1.04 | 0.592 | 0.63 | 1.72 | 1.2 | 3.21 | 0.5 | 1.92 | 1.12 | 0.501 | 1
3 | 0.501 | 0.752 | 0.682 | DHFNQYEQQKM [CHD7_Y75_YF] | 0.468 | 0.382 | 0.599 | 0.415 | 0.47 | 0.457 | 0.744 | 0.462 | 0.425 | 0.834 | 0.535 | 0.414 | 0.582
4 | 0.45 | 0.905 | 0.719 | DKITQYVEEVR [STX2_Y49_K54R] | 0.477 | 0.427 | 0.605 | 0.486 | 0.517 | 0.739 | 1.08 | 0.551 | 0.411 | 0.999 | 0.872 | 0.417 | 0.609
5 | 3.41 | 0.824 | 1.24 | DLAAQYTTVGR [SGSH_Y240] | 0.462 | 0.52 | 0.542 | 0.382 | 0.799 | 0.407 | 0.664 | 0.415 | 0.494 | 0.701 | 0.724 | 0.912 | 0.53
6 | 0.502 | 0.798 | 0.832 | DLDATYRPMYS [JUP_Y701_M697L] | 0.383 | 0.46 | 0.486 | 0.433 | 0.6 | 0.399 | 0.86 | 0.444 | 0.386 | 0.699 | 0.588 | 0.569 | 0.512
7 | 0.429 | 1.06 | 0.622 | DLDTEYGSGFP [RNASEH2A_Y206_D205E_YF] | 0.622 | 0.744 | 1.27 | 0.799 | 0.654 | 0.676 | 1.34 | 0.642 | 0.469 | 1.55 | 1.39 | 0.825 | 0.958
8 | 0.531 | 0.7 | 0.464 | DLDTEYGSGYP [RNASEH2A_Y206_D205E] | 0.507 | 0.49 | 0.727 | 0.505 | 0.546 | 0.652 | 1.01 | 0.542 | 0.379 | 1.23 | 1.17 | 0.549 | 0.652
9 | 0.652 | 0.93 | 0.851 | DMLFQYLKQIE [RPAP3_Y569_YF] | 0.531 | 0.421 | 0.577 | 0.462 | 0.571 | 0.684 | 1.22 | 0.588 | 0.523 | 1.48 | 0.976 | 0.468 | 0.59
10 | 0.469 | 0.77 | 0.627 | DNEALYDICFR [TUBB2B_Y208] | 0.618 | 6.65 | 3.58 | 10.2 | 6.43 | 4.63 | 1.6 | 4.88 | 7.51 | 3.21 | 1.38 | 5.86 | 0.917
11 | 0.438 | 0.819 | 0.617 | DNLNNYVFQGQ [GRIN2A_Y978] | 0.703 | 0.593 | 0.815 | 0.514 | 0.392 | 1.77 | 1.06 | 1.17 | 0.657 | 1.21 | 1.01 | 0.598 | 0.789
12 | 1.75 | 0.957 | 0.737 | DPHQQYYIAMD [TBX15_Y159] | 6.27 | 0.625 | 0.59 | 0.52 | 0.669 | 0.735 | 0.881 | 0.593 | 2.7 | 1.05 | 0.996 | 1.55 | 4.36
13 | 0.542 | 0.921 | 0.911 | DPLLTYRFPPK [LMNA_Y481] | 0.452 | 0.502 | 0.578 | 0.292 | 0.43 | 0.422 | 0.513 | 0.349 | 0.434 | 0.597 | 0.515 | 0.635 | 0.446
14 | 0.939 | 0.804 | 0.779 | DPYHVYIKNHV [KCNE3_Y95_R99H] | 0.447 | 0.981 | 0.685 | 0.45 | 0.705 | 0.467 | 0.826 | 0.459 | 0.399 | 0.845 | 0.798 | 2.34 | 0.533
15 | 0.53 | 0.867 | 0.704 | DQNVEYKGTVS [FHL1_Y117_W122S] | 0.525 | 0.422 | 0.624 | 0.468 | 0.495 | 0.508 | 0.828 | 0.616 | 0.452 | 0.801 | 0.618 | 0.444 | 0.566
16 | 0.422 | 0.974 | 0.846 | DRLASSLDKVR [KRT10_Y160_Y160S] | 0.35 | 0.423 | 0.468 | 0.412 | 0.308 | 0.34 | 0.663 | 0.364 | 0.331 | 0.438 | 0.473 | 0.333 | 0.415
